# Measurements published in patent US6869778 (Scripps Research, dated 2005).
# Target: plasminogen activator inhibitor, type 1 (PAI-1) (UniProt P05121 24-402)
# Test: enzyme preincubated with PAI-1 under pseudo-first order conditions at 23 degrees Celsius; residual activity read in indirect chromogenic assay
# Protocol: Second order rate constants for the inhibition of wild type human t-PA and variant t-PA were measured under pseudo-first order conditions as previously described. Briefly, enzyme and inhibitor were preincubated at 23 degrees Celsius for periods of time varying from 0–30 minutes. Following preincubation, the mixtures were diluted, and the residual enzymatic activity was measured in a standard indirect chromogenic assay. For each enzyme, the concentrations of enzyme and inhibitor and the times of preincubation were chosen to yield several data points for which the residual enzymatic activity varied between 20% and 80% of the initial activity. Data were analyzed by plotting the natural logarithm of the ratio (residual activity/initial activity) versus time of preincubation and measuring the resulting slopes. Division of this slope by –[I] yielded the second order rate constants shown.
# Sequence of plasminogen activator inhibitor, type 1 (PAI-1) (P05121 24-402 limits assumed): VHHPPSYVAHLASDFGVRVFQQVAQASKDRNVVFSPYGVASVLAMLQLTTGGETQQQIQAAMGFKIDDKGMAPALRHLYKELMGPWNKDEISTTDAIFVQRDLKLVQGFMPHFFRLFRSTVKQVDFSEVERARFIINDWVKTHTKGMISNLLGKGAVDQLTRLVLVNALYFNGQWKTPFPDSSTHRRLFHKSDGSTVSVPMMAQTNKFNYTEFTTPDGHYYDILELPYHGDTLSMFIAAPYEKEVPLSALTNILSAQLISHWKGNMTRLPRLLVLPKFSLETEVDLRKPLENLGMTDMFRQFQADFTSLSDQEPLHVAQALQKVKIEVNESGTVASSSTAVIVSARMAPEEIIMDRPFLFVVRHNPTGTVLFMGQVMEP
row,Binder,Second Order Rate Constant for inhibition by PAI-1 [M⁻¹ s⁻¹]
1,"t-PA/R275E, single-chain form (enzyme, Noncleavable single-chain enzyme, secreted from COS-1 cells only as a single chain) SYQVICRDEKTQMIYQQHQSWLRPVLRSNRVEYCWCNSGRAQCHSVPVKSCSEPRCFNGGTCQQALYFSDFVCQCPEGFAGKCCEIDTRATCYEDQGISYRGTWSTAESGAECTNWNSSALAQKPYSGRRPDAIRLGLGNHNYCRNPDRDSKPWCYVFKAGKYSSEFCSTPACSEGNSDCYFGNGSAYRGTHSLTESGASCLPWNSMILIGKVYTAQNPSAQALGLGKHNYCRNPDGDAKPWCHVLKNRRLTWEYCDVPSCSTCGLRQYSQPQFEIKGGLFADIASHPWQAAIFAKHRRSPGERFLCGGILISSCWILSAAHCFQERFPPHHLTVILGRTYRVVPGEEEQKFEVEKYIVHKEFDDDTYDNDIALLQLKSDSSRCAQESSVVRTVCLPPADLQLPDWTECELSGYGKHEALSPFYSERLKEAHVRLYPSSRCTSQHLLNRTVTDNMLCAGDTRSGGPQANLHDACQGDSGGPLVCLNDGRMTLVGIISWGLGCGQKDVPGVYTKVTNYLDWIRDNMRP",1.8e+06
2,"t-PA/R275E,H417D, single-chain form (enzyme) SYQVICRDEKTQMIYQQHQSWLRPVLRSNRVEYCWCNSGRAQCHSVPVKSCSEPRCFNGGTCQQALYFSDFVCQCPEGFAGKCCEIDTRATCYEDQGISYRGTWSTAESGAECTNWNSSALAQKPYSGRRPDAIRLGLGNHNYCRNPDRDSKPWCYVFKAGKYSSEFCSTPACSEGNSDCYFGNGSAYRGTHSLTESGASCLPWNSMILIGKVYTAQNPSAQALGLGKHNYCRNPDGDAKPWCHVLKNRRLTWEYCDVPSCSTCGLRQYSQPQFEIKGGLFADIASHPWQAAIFAKHRRSPGERFLCGGILISSCWILSAAHCFQERFPPHHLTVILGRTYRVVPGEEEQKFEVEKYIVHKEFDDDTYDNDIALLQLKSDSSRCAQESSVVRTVCLPPADLQLPDWTECELSGYGKDEALSPFYSERLKEAHVRLYPSSRCTSQHLLNRTVTDNMLCAGDTRSGGPQANLHDACQGDSGGPLVCLNDGRMTLVGIISWGLGCGQKDVPGVYTKVTNYLDWIRDNMRP",150000
3,"t-PA/R275E,H417E, single-chain form (enzyme) SYQVICRDEKTQMIYQQHQSWLRPVLRSNRVEYCWCNSGRAQCHSVPVKSCSEPRCFNGGTCQQALYFSDFVCQCPEGFAGKCCEIDTRATCYEDQGISYRGTWSTAESGAECTNWNSSALAQKPYSGRRPDAIRLGLGNHNYCRNPDRDSKPWCYVFKAGKYSSEFCSTPACSEGNSDCYFGNGSAYRGTHSLTESGASCLPWNSMILIGKVYTAQNPSAQALGLGKHNYCRNPDGDAKPWCHVLKNRRLTWEYCDVPSCSTCGLRQYSQPQFEIKGGLFADIASHPWQAAIFAKHRRSPGERFLCGGILISSCWILSAAHCFQERFPPHHLTVILGRTYRVVPGEEEQKFEVEKYIVHKEFDDDTYDNDIALLQLKSDSSRCAQESSVVRTVCLPPADLQLPDWTECELSGYGKEEALSPFYSERLKEAHVRLYPSSRCTSQHLLNRTVTDNMLCAGDTRSGGPQANLHDACQGDSGGPLVCLNDGRMTLVGIISWGLGCGQKDVPGVYTKVTNYLDWIRDNMRP",210000
